Data on one substance can be found in paper PMC12043510.

In general, Kd refers to a measure of binding affinity in units of concentration. The low end stands for higher affinity, the high end for lower affinity.

Assay [1] deals with GST–CP (rice stripe virus (RSV)). In words: MST.
Assay [2] concerns the target MBP–P2^1–786 (rice dwarf virus (RDV)). As to the kind of experiment: MST.

For the substance “MBP–RBRL (from UniProt Q75LV6 1-540) (enzyme)”, the Kd in assay [1] worked out at 5.28 nM; in assay [2], 183 nM.
